{"source": "paper PMC4774423", "about": "(Frontiers in Immunology, 2016)", "binders": {"B1": {"name": "recombinant human calreticulin (natural protein, UniProt P27797 18-417, looked up)", "chain": "EPAVYFKEQFLDGDGWTSRWIESKHKSDFGKFVLSSGKFYGDEEKDKGLQTSQDARFYALSASFEPFSNKGQTLVVQFTVKHEQNIDCGGGYVKLFPNSLDQTDMHGDSEYNIMFGPDICGPGTKKVHVIFNYKGKNVLINKDIRCKDDEFTHLYTLIVRPDNTYEVKIDNSQVESGSLEDDWDFLPPKKIKDPDASKPEDWDERAKIDDPTDSKPEDWDKPEHIPDPDAKKPEDWDEEMDGEWEPPVIQNPEYKGEWKPRQIDNPDYKGTWIHPEIDNPEYSPDPSIYAYDNFGVLGLDLWQVKSGTIFDNFLITNDEAYAEEFGNETWGVTKAAEKQMKDKQDEEQRLKEEEEDKKRKEEEEAEDKEDDEDKDEDEEDEEDKEEDEEEDVPGQAKDEL", "notes": "human calreticulin, recombinant; also called CRT"}, "B2": {"name": "gC1qA module of C1q-scGR (residues 88-223 of mature C1qA) (domain or fragment, human, UniProt P02745 110-245, looked up)", "chain": "KDQPRPAFSAIRRNPPMGGNVVIFDTVITNQEEPYQNHSGRFVCTVPGYYYFTFQVLSQWEICLSIVSSSRGQVRRSLGFCDTTNKGLFQVVSGGMVLQLQQGDQVWVEKDPKKGHIYQGSEADSVFSGFLIFPSA", "modifications": "N-glycan at Asn 124", "notes": "globular domain of human C1q chain A; numbers count on: the mature protein; In the crystal it is joined on one chain with gC1qC (Gly-Ser-Gly linker) and gC1qB: see m1; also called subunit A; source: 293-F cells, as part of the single chain C1q-scGR, purified"}, "B3": {"name": "gC1qC module of C1q-scGR (residues 87-217 of mature C1qC) (domain or fragment, human, UniProt P02747 115-245, looked up)", "chain": "KQKFQSVFTVTRQTHQPPAPNSLIRFNAVLTNPQGDYDTSTGKFTCKVPGLYYFVYHASHTANLCVLLYRSGVKVVTFCGHTSKTNQVNSGGVLLRLQVGEEVWLAVNDYYDMVGIQGSDSVFSGFLLFPD", "notes": "globular domain of human C1q chain C; numbers count on: the mature protein; In the crystal it is joined on one chain between gC1qA and gC1qB: see m1; also called subunit C; source: 293-F cells, as part of the single chain C1q-scGR, purified"}, "B4": {"name": "recombinant human receptor for the globular heads of C1q (gC1qR) (receptor, UniProt Q07021 74-282, looked up)", "chain": "LHTDGDKAFVDFLSDEIKEERKIQKHKTLPKMSGGWELELNGTEAKLVRKVAGEKITVTFNINNSIPPTFDGEEEPSQGQKVEEQEPELTSTPNFVVEVIKNDDGKKALVLDCHYPEDEVGQEDEAESDIFSIREVSFQSTGESEWKDTNYTLNTDSLDWALYDHLMDFLADRGVDNTFADELVELSTALEHQEYITFLEDLKSFVKSQ", "notes": "the mature protein is recalled to begin at residue 74 of the precursor; also called receptor for C1q globular heads"}, "B5": {"name": "single-chain recombinant form of human C1q globular region (C1q-scGR) (domain or fragment)", "chain": "KDQPRPAFSAIRRNPPMGGNVVIFDTVITNQEEPYQNHSGRFVCTVPGYYYFTFQVLSQWEICLSIVSSSRGQVRRSLGFCDTTNKGLFQVVSGGMVLQLQQGDQVWVEKDPKKGHIYQGSEADSVFSGFLIFPSAGSGKQKFQSVFTVTRQTHQPPAPNSLIRFNAVLTNPQGDYDTSTGKFTCKVPGLYYFVYHASHTANLCVLLYRSGVKVVTFCGHTSKTNQVNSGGVLLRLQVGEEVWLAVNDYYDMVGIQGSDSVFSGFLLFPDGSAKATQKIAFSATRTINVPLRRDQTIRFDHVITNMNNNYEPRSGKFTCKVPGLYYFTYHASSRGNLCVNLMRGRERAQKVVTFCDYAYNTFQVTTGGMVLKLEQGENVFLQATDKNSLLGMEGANSIFSGFLLFPDMEA", "modifications": "N-glycan (biantennary, sialylated) at Asn 124 of C1qA", "notes": "globular domain of human complement C1q chain A (gC1qA), residues 88-223 of mature C1qA; numbers count on: the mature protein; Gly-Ser-Gly linker between gC1qA and gC1qC; Gly-Ser-Ala linker between gC1qC and gC1qB; globular domain of human complement C1q chain B (gC1qB), residues 90-226 of mature C1qB; An insect-cell version (C1qA 85-223, melittin signal peptide) was also made but was low-yield …"}}, "conditions_in_all_cases": "both partners purified", "key": {"[1]": {"target": "T1, globular regions of C1q prepared by collagenase digestion of serum-derived C1q (C1q-GR) (human, UniProt P02745 112-245; P02746 118-253; P02747 115-245)", "T1 construct": "globular region of human C1q chain A left after collagenase digestion; globular region of human C1q chain B left after collagenase digestion; globular region of human C1q chain C left after collagenase digestion; Heterotrimer of the three globular modules; Mw 48,000 used for concentration; also called serum-derived C1q-GR; plasma-derived C1q-GR; source: collagenase digestion of C1q purified from …", "assay": "SPR; Biacore 3000, 25°C; CRT, gC1qR and PTX3 amine-coupled on CM5; C1q samples flowed at 20 μl/min in 50 mM Tris-HCl, 150 mM NaCl, 2 mM CaCl2, 0.005% P20, pH 7.4; global fit 1:1 Langmuir (two-state model for C1q-CRT); apparent KD"}, "[2]": {"target": "T2, C1q purified from human serum (full-length C1q) (human, UniProt P02745 23-245; P02746 28-253; P02747 29-245)", "T2 construct": "also called intact C1q; native C1q; source: purified from human serum; copies: 6 + 6 + 6", "assay": "SPR; Biacore 3000, 25°C; CRT, gC1qR and PTX3 amine-coupled on CM5; C1q samples flowed at 20 μl/min in 50 mM Tris-HCl, 150 mM NaCl, 2 mM CaCl2, 0.005% P20, pH 7.4; global fit 1:1 Langmuir (two-state model for C1q-CRT); apparent KD"}, "[3]": {"target": "T3, gC1qB module of C1q-scGR (residues 90-226 of mature C1qB) (human, UniProt P02746 117-253)", "T3 construct": "globular domain of human C1q chain B; numbers count on: the mature protein; In the crystal it is joined on one chain after gC1qC (Gly-Ser-Ala linker): see m1; also called subunit B; source: 293-F cells, as part of the single chain C1q-scGR, purified", "assay": "crystal structure; C1q-scGR crystallised with and without calcium in the reservoir; 1.35 and 1.55 Å"}, "[4]": {"target": "B2", "assay": "crystal structure; C1q-scGR crystallised with and without calcium in the reservoir; 1.35 and 1.55 Å"}, "[5]": {"target": "B1", "assay": "SPR; Biacore 3000, 25°C; CRT, gC1qR and PTX3 amine-coupled on CM5; C1q samples flowed at 20 μl/min in 50 mM Tris-HCl, 150 mM NaCl, 2 mM CaCl2, 0.005% P20, pH 7.4; global fit 1:1 Langmuir (two-state model for C1q-CRT); apparent KD"}, "[6]": {"target": "B4", "assay": "SPR; Biacore 3000, 25°C; CRT, gC1qR and PTX3 amine-coupled on CM5; C1q samples flowed at 20 μl/min in 50 mM Tris-HCl, 150 mM NaCl, 2 mM CaCl2, 0.005% P20, pH 7.4; global fit 1:1 Langmuir (two-state model for C1q-CRT); apparent KD"}, "[7]": {"target": "T4, recombinant human long pentraxin PTX3 (human, UniProt P26022 18-381)", "T4 construct": "human pentraxin 3, recombinant", "T4 sequence (P26022 18-381)": "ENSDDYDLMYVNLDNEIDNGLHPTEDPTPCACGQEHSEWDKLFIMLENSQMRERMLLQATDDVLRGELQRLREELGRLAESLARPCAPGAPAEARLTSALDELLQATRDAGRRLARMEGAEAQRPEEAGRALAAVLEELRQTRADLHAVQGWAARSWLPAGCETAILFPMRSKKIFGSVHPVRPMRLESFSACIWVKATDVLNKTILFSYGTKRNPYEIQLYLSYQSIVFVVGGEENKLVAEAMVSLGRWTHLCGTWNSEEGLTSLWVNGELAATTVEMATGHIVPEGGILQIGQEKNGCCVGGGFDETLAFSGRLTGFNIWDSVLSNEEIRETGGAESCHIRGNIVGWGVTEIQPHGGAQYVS", "assay": "SPR; Biacore 3000, 25°C; CRT, gC1qR and PTX3 amine-coupled on CM5; C1q samples flowed at 20 μl/min in 50 mM Tris-HCl, 150 mM NaCl, 2 mM CaCl2, 0.005% P20, pH 7.4; global fit 1:1 Langmuir (two-state model for C1q-CRT); apparent KD"}}}
{"binder": "B1", "values": [{"measurement": "Kd", "setting": "[1]", "value": 510, "unit": "nM"}, {"measurement": "koff", "setting": "[1]", "value": 0.00234, "unit": "s⁻¹"}, {"measurement": "kon", "setting": "[1]", "value": 4630, "unit": "M⁻¹ s⁻¹"}, {"measurement": "Kd", "setting": "[2]", "value": 590, "unit": "nM"}]}
{"binder": "B2", "values": [{"measurement": "binding result", "setting": "[3]", "value": "binds"}]}
{"binder": "B3", "values": [{"measurement": "binding result", "setting": "[3]", "value": "binds"}, {"measurement": "binding result", "setting": "[4]", "value": "binds"}]}
{"binder": "B4", "values": [{"measurement": "Kd", "setting": "[1]", "value": 344, "unit": "nM"}, {"measurement": "koff", "setting": "[1]", "value": 0.00149, "unit": "s⁻¹"}, {"measurement": "kon", "setting": "[1]", "value": 4400, "unit": "M⁻¹ s⁻¹"}, {"measurement": "Kd", "setting": "[2]", "value": 7.2, "unit": "nM"}, {"measurement": "koff", "setting": "[2]", "value": 0.000457, "unit": "s⁻¹"}, {"measurement": "kon", "setting": "[2]", "value": 68000, "unit": "M⁻¹ s⁻¹"}]}
{"binder": "B5", "values": [{"measurement": "Kd", "setting": "[5]", "value": 494, "unit": "nM"}, {"measurement": "koff", "setting": "[5]", "value": 0.00136, "unit": "s⁻¹"}, {"measurement": "kon", "setting": "[5]", "value": 2800, "unit": "M⁻¹ s⁻¹"}, {"measurement": "Kd", "setting": "[6]", "value": 304, "unit": "nM"}, {"measurement": "koff", "setting": "[6]", "value": 0.00067, "unit": "s⁻¹"}, {"measurement": "kon", "setting": "[6]", "value": 2220, "unit": "M⁻¹ s⁻¹"}, {"measurement": "Kd", "setting": "[7]", "value": 444, "unit": "nM"}, {"measurement": "koff", "setting": "[7]", "value": 0.000552, "unit": "s⁻¹"}, {"measurement": "kon", "setting": "[7]", "value": 1320, "unit": "M⁻¹ s⁻¹"}]}
